Paper doi:10.1101/590646

Target: SERINC5-VN-HA (human) (UniProt Q86VE9)
Experiment: split reporter

Sequence of UniProt Q86VE9 (Q86VE9 whole entry): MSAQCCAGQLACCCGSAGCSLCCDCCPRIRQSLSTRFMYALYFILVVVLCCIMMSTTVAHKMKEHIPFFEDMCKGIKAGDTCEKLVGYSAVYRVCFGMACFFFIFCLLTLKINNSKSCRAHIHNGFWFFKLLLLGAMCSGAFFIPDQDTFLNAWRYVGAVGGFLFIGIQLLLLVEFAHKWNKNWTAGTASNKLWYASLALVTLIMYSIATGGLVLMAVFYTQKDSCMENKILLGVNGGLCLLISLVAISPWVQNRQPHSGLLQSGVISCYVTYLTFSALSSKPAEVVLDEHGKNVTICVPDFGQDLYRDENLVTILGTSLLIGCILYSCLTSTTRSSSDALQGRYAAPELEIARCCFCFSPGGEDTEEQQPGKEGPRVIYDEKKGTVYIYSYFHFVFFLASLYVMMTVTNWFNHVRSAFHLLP

Substance: Nef_(NL43)-V5-VC (HIV-1 NL4-3 Nef fused to a Venus fragment) (natural protein)
- fold increase in BiFC fluorescence over the singly expressed constructs: 4 fold
